Positions count from the first letter of the chain named.
T1: MASP3 in Factor D depleted human plasma (human, UniProt P48740-2 20-728)
T1 sequence (looked up): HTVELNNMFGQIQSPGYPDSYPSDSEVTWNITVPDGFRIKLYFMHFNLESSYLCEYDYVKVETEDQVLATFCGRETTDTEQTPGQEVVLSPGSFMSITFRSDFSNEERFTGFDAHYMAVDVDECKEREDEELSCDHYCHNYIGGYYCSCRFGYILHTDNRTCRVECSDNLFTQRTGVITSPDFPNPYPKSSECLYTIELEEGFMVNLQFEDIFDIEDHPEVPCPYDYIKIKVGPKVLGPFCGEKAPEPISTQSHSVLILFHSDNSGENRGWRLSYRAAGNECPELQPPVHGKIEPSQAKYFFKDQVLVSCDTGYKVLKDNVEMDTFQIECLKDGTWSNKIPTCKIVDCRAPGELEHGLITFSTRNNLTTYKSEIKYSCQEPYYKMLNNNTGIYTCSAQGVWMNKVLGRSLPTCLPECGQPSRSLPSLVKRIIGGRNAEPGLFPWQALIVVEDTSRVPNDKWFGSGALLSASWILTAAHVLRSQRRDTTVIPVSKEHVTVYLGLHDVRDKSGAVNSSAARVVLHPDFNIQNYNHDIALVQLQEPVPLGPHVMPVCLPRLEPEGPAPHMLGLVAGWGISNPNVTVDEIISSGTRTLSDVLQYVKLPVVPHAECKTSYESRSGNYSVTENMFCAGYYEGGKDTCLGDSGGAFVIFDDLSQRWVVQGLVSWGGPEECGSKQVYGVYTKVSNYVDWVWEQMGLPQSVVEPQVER

T2: mouse MASP3-His (mouse, UniProt P98064-2 25-733)
T2 construct: not shown: His tag added to the terminal
T2 sequence (looked up): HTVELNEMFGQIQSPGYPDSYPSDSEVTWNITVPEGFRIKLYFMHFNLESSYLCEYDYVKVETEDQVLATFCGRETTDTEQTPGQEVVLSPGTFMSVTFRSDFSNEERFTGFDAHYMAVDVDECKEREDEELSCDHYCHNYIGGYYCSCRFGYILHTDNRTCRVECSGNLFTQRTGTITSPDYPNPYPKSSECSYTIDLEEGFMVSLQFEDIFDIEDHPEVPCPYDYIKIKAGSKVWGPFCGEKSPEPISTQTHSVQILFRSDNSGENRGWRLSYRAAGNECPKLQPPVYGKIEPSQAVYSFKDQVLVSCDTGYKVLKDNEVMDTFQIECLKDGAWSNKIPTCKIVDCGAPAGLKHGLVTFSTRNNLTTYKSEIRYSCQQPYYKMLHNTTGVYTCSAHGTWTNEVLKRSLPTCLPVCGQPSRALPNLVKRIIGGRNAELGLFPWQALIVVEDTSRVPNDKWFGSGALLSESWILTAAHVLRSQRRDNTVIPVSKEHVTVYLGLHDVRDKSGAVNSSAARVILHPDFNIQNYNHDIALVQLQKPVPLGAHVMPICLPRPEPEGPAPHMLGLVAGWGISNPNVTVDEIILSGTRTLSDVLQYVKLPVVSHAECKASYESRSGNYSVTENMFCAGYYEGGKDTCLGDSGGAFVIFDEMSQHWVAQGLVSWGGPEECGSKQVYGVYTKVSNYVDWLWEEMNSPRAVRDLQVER

T3: human MASP3-His (human, UniProt P48740-2 20-728)
T3 construct: also called human MASP3 antigen; not shown: His tag added to the terminal
T3 sequence (looked up): T1 sequence (looked up)

B1: M3-K2-8 (antibody, V domains shown)
VH: QVQLVQSGAEVKKPGASVKVSCKASGYTFTGKWIEWVRQAPGQGLEWMGEILPGSGSTDYNERFKDRATFTADTSTSTAYMELSSLRSEDTAVYYCVRSEDLWGQGTLVTVSS
VL: DIVLTQSPDSLAVSLGERATINCKSSQNLFNSRTRKNYLAWFQQKPGQSPKLLIYWASTRESGVPDRFSGSGSGTDFTLTISSLQAEDVAVYYCKQSYIPFTFGGGTKVEIK
notes: Humanized M3-K2
B2: M3-K2-5 (antibody, V domains shown)
VH: B1 VH with A68V, A79V
VL: EIVLTQSPATLSVSPGERATLSCKSSQNLFNSRTRKNYLAWFQQKPGQSPRLLIYWASTRESGIPARFSGSGSGTEFTLTISSLQSEDFAVYYCKQSYIPFTFGGGTKVEIK
B3: M3-K2-11 (antibody, V domains shown)
VH: B1 VH with A68V, A79V
VL: B1 VL with L4M
notes: Humanized M3-K2
B4: M3-K2-6 (antibody, V domains shown)
VH: B1 VH with M48I
VL: B1 VL
notes: Humanized M3-K2
B5: humM2mc51-1 (antibody, V domains shown)
VH: QVQLQESGPGLVKPSETLSLTCTVSGYSITSDYAWNWIRQPPGKKLEWMGYISYSGRTSYNPSLKSRITISRDTSKNQFSLKLSSVTAADTAVYYCSRHYGDYWGQGTLVTVSS
VL: EIVMTQSPATLSVSPGERATLSCKASQNVGTNVAWYQQKPGQSPRALIYSASYRYSGIPARFSGSGSGTEFTLTISSLQSEDFAVYFCHQYNSNPLTFGGGTKVEIK
notes: Humanized anti-MASP2 antibody; also called anti-MASP2 antibody humM2mc51-1; parent antibody humM2mc51-1
B6: humM2mc51-1-ES93DA (antibody, V domains shown)
VH: B5 VH
VL: B5 VL with E1D, S93A
notes: Mutant of humM2mc51-1
B7: humM2mc51-1-N92Q (antibody, V domains shown)
VH: B5 VH
VL: B5 VL with N92Q
notes: VL CDR3 mutant of humM2mc51-1
B8: humM2mc51-1-N92S (antibody, V domains shown)
VH: B5 VH
VL: B5 VL with N92S
notes: VL CDR3 mutant of humM2mc51-1
B9: humM2mc51-1-S93E (antibody, V domains shown)
VH: B5 VH
VL: B5 VL with S93E
notes: VL CDR3 mutant of humM2mc51-1
B10: M3-K1-2 (antibody, V domains shown)
VH: B1 VH with M48I
VL: B1 VL with L4M, N28S, F30L, R33V, N37T, F42Y, I99T, P100L, F101P
B11: M3-K1-5 (antibody, V domains shown)
VH: B1 VH with A68V, A79V
VL: B1 VL with L4M, N28S, F30L, R33V, N37T, F42Y, S49P, I99T, P100L, F101P
B12: M3-K2-10 (antibody, V domains shown)
VH: B1 VH with A68V, A79V
VL: B1 VL
B13: M3-K2-7 (antibody, V domains shown)
VH: B1 VH with M48I
VL: B1 VL with L4M
B14: M3-K1-3 (antibody, V domains shown)
VH: B1 VH
VL: B1 VL with L4M, N28S, F30L, R33V, N37T, F42Y, S49P, I99T, P100L, F101P
B15: M3-K1-4 (antibody, V domains shown)
VH: B1 VH
VL: B1 VL with L4M, N28S, F30L, R33V, N37T, F42Y, I99T, P100L, F101P
B16: M3-K2-9 (antibody, V domains shown)
VH: B1 VH
VL: B1 VL with L4M
B17: M3-K1-1 (antibody, V domains shown)
VH: B1 VH with M48I
VL: B1 VL with L4M, N28S, F30L, R33V, N37T, F42Y, S49P, I99T, P100L, F101P
B18: M3-K1-6 (antibody, V domains shown)
VH: B1 VH with A68V, A79V
VL: B1 VL with L4M, N28S, F30L, R33V, N37T, F42Y, I99T, P100L, F101P

target: T1, MASP3 in Factor D depleted human plasma; assay: cell-based or functional assay

First: B1
Second: B2
The “Inhibit hemolysis IC50” value of the first is 1.6-fold lower: 2.11 nM for the first, 3.41 nM for the second.

B3 and B4 are within 1.5-fold of each other in “Inhibit hemolysis IC50” value: 2.2 nM for the first, 3.18 nM for the second.

target: T4, human MASP2 (R444Q) - His (human, UniProt O00187 16-686); assay: ELISA; human MASP2 (R444Q)-His coated 0.1 ug/well, antibody titrated, goat anti-human IgG HRP
T4 construct: not shown: His tag at the C-terminus
T4 sequence (O00187 16-686 R444Q limits assumed): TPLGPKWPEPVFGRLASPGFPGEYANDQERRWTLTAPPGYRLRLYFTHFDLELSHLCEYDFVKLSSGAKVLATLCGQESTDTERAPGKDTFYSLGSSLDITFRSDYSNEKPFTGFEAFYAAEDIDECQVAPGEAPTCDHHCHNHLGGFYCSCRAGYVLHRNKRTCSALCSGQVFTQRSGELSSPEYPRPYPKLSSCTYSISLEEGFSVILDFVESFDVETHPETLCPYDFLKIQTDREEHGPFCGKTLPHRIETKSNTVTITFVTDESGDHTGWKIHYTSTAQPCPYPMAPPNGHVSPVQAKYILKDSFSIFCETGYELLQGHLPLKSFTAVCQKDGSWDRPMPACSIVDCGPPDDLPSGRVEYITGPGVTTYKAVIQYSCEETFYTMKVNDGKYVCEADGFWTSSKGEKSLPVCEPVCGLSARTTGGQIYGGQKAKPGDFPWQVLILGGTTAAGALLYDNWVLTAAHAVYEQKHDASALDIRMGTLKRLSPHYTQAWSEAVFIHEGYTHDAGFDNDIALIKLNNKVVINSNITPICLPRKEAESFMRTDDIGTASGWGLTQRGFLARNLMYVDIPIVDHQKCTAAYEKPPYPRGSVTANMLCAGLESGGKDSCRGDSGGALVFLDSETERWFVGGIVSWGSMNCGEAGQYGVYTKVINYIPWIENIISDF

B5 and B6 are within 1.5-fold of each other in EC50: 0.086 nM for the first, 0.082 nM for the second.

B7 and B8 are within 1.5-fold of each other in EC50: 0.072 nM for the first, 0.079 nM for the second.

In the case of B9, the EC50 is reported as 0.085 nM.

target: T2, mouse MASP3-His; assay: SPR (Biacore 8K); antibody immobilized on CM5 chip, antigen as analyte

B1 and B3 are within 1.5-fold of each other in Kd: 0.77 nM for the first, 0.86 nM for the second.

B4 was tested, and the Kd was 0.887 nM.

B1 and B3 are within 1.5-fold of each other in koff: 0.000137 s⁻¹ for the first, 0.000145 s⁻¹ for the second.

B4 showed a koff of 0.000149 s⁻¹.

B1 and B3 are within 1.5-fold of each other in kon: 178000 M⁻¹ s⁻¹ for the first, 168000 M⁻¹ s⁻¹ for the second.

For B4, the kon was 168000 M⁻¹ s⁻¹.

target: T5, monkey MASP3-His (monkey); assay: as above
T5 construct: monkey species not further specified

B1 and B3 are within 1.5-fold of each other in Kd: 0.77 nM for the first, 0.86 nM for the second.

With B4 the Kd was 0.887 nM.

B1 and B3 are within 1.5-fold of each other in koff: 0.000137 s⁻¹ for the first, 0.000144 s⁻¹ for the second.

With B4 the koff was 0.000147 s⁻¹.

B1 and B3 are within 1.5-fold of each other in kon: 178000 M⁻¹ s⁻¹ for the first, 167000 M⁻¹ s⁻¹ for the second.

With B4 the kon was 165000 M⁻¹ s⁻¹.

target: T3, human MASP3-His; assay: as above

B1 and B3 are within 1.5-fold of each other in Kd: 1.04 nM for the first, 1.34 nM for the second.

In the case of B4, the Kd is reported as 1.45 nM.

B1 and B3 are within 1.5-fold of each other in koff: 0.000189 s⁻¹ for the first, 0.000218 s⁻¹ for the second.

B4 showed a koff of 0.00025 s⁻¹.

B1 and B3 are within 1.5-fold of each other in kon: 182000 M⁻¹ s⁻¹ for the first, 163000 M⁻¹ s⁻¹ for the second.

Work on B4 yielded a kon of 173000 M⁻¹ s⁻¹.

target: T3, human MASP3-His; assay: cell-based or functional assay

B1 and B10 are within 1.5-fold of each other in “IC50 (nM), inhibition of MASP3 enzyme activity (fluorescent tripeptide cleavage)” value: 21.9 nM for the first, 31.2 nM for the second.

B11 and B12 are within 1.5-fold of each other in “IC50 (nM), inhibition of MASP3 enzyme activity (fluorescent tripeptide cleavage)” value: 27.9 nM for the first, 37 nM for the second.

B13 and B14 are within 1.5-fold of each other in “IC50 (nM), inhibition of MASP3 enzyme activity (fluorescent tripeptide cleavage)” value: 25.2 nM for the first, 24.2 nM for the second.

B15 and B16 are within 1.5-fold of each other in “IC50 (nM), inhibition of MASP3 enzyme activity (fluorescent tripeptide cleavage)” value: 29.9 nM for the first, 33.7 nM for the second.

B17 and B18 are within 1.5-fold of each other in “IC50 (nM), inhibition of MASP3 enzyme activity (fluorescent tripeptide cleavage)” value: 31.5 nM for the first, 28.2 nM for the second.

B3 and B4 are within 1.5-fold of each other in “IC50 (nM), inhibition of MASP3 enzyme activity (fluorescent tripeptide cleavage)” value: 26.4 nM for the first, 29.5 nM for the second.

target: MASP2 in normal human plasma (human, UniProt O00187 16-686); assay: cell-based or functional assay
Sequence (O00187 16-686 limits assumed): as the sequence (O00187 16-686 R444Q limits assumed) above, with Q429R counted along it

B5 and B6 are within 1.5-fold of each other in “IC50 (nM), inhibition of complement C4b deposition (mannan-coated plate, 1% human plasma)” value: 0.055 nM for the first, 0.045 nM for the second.

B7 and B8 are within 1.5-fold of each other in “IC50 (nM), inhibition of complement C4b deposition (mannan-coated plate, 1% human plasma)” value: 0.11 nM for the first, 0.09 nM for the second.

With B9 the “IC50 (nM), inhibition of complement C4b deposition (mannan-coated plate, 1% human plasma)” value was 0.05 nM.

From patent publication EP4725501A1 (Staidson (Beijing) Biopharmaceuticals Co., Ltd., dated 2026)
